Laboratory results published in paper PMC4900634 (PLoS Biology, 2016).
Positions count from the first letter of the chain named. Numbers in names are those of the source.

Key:
[1] = biological target: T1, Ec-MscL (mechanosensitive channel of large conductance) (Escherichia coli, UniProt P0A742); experiment: MicroScale Thermophoresis; supported by patch clamp activation at […] DHS and MTS-PEG5000 competition on cysteine mutants; assay type: binding
T1 construct: wild type, recombinant, detergent-solubilized channel

[2] = biological target: T2, Ec-MscL (mechanosensitive channel of large conductance) (Escherichia coli, UniProt P0A742, K55T); experiment: MicroScale Thermophoresis, labeled purified protein in DDM (main text prints […]); assay type: binding
T2 construct: recombinant, detergent-solubilized channel

[3] = biological target: the molecule itself; experiment: non-reducing SDS-PAGE with Western blot (dimer band); purified His-tagged cysteine mutants, 5 ug in 50 mM KPi pH 7.5, 150 mM NaCl, 4 mM DM, 22°C; nonreducing sample buffer with iodoacetamide; blot with Penta.His; samples of the MTS-PEG5000 versus DHS competition experiment, mock lanes included

T2 sequence (P0A742 whole entry K55T): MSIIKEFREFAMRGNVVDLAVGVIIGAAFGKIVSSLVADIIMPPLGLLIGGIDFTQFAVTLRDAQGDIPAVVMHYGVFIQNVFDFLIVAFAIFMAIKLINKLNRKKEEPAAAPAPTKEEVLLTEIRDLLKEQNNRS
T1 sequence (P0A742 whole entry): as the sequence (P0A742 whole entry K55T) above, with T55K counted along it

CN[C@@H]1[C@H](O[C@H]2[C@H](O[C@H]3[C@H](O)[C@@H](O)[C@H](NC(=N)N)[C@@H](O)[C@@H]3NC(=N)N)O[C@@H](C)[C@]2(O)CO)O[C@@H](CO)[C@H](O)[C@H]1O [DHS, dihydrostreptomycin]
Kd [1]: 9.81 ± 0.13 mM | Kd [2]: 0.601 ± 0.0551 mM

B1: A114C Ec-MscL (Escherichia coli mechanosensitive channel of large conductance, cysteine mutant) (natural protein, UniProt P0A742 1-136, looked up)
chain: MSIIKEFREFAMRGNVVDLAVGVIIGAAFGKIVSSLVADIIMPPLGLLIGGIDFKQFAVTLRDAQGDIPAVVMHYGVFIQNVFDFLIVAFAIFMAIKLINKLNRKKEEPAAAPCPTKEEVLLTEIRDLLKEQNNRS
notes: MscL, mechanosensitive channel of large conductance, Escherichia coli (Ec-MscL); single cysteine mutant; source: E. coli PB104 (pB10) or PB116 (pET21a), purified (Talon resin, in DM); not shown: His6, C-terminal, kept
binding result [3]: binds

B2: T116C Ec-MscL (Escherichia coli mechanosensitive channel of large conductance, cysteine mutant) (natural protein, UniProt P0A742 1-136, looked up)
chain: B1 chain with C114A, T116C
notes: as for B1
binding result [3]: binds

B3: K117C Ec-MscL (Escherichia coli mechanosensitive channel of large conductance, cysteine mutant) (natural protein, UniProt P0A742 1-136, looked up)
chain: B1 chain with C114A, K117C
notes: as for B1
binding result [3]: binds
